Two molecules from patent US20090004190A1 (published 2009) can be followed below.

For one assay, the target named is T1, BSA (UniProt P02769 25-607).
T1 construct: Negative control coating; also called BSA coating alone; BSA+wash
Put plainly: plate ELISA, BSA-only coating, detection with anti-human IgG1 complex, absorbance at 405 nm. The method, then:
(§1) Known RAGE ligands were coated onto the surface of Maxisorb plates at a concentration of 5 micrograms per well. Plates were incubated at 4° C. overnight. Following ligand incubation, plates were aspirated and a blocking buffer of 1% BSA in 50 mM imidizole buffer (pH 7.2) was added to the plates for 1 hour at room temperature. The plates were then aspirated and/or washed with wash buffer (20 mM Imidizole, 150 mM NaCl, 0.05% Tween-20, 5 mM CaCl₂ and 5 mM MgCl₂, pH 7.2). […] The RAGE fusion protein was added at increasing dilutions of the initial sample. The RAGE fusion protein was allowed to incubate with the immobilized ligand at 37° C. for one hour after which the plate was washed and assayed for binding of the RAGE fusion protein. Binding was detected by the addition of an immunodetection complex containing a monoclonal mouse anti-human IgG1 diluted 1:11,000 to a final assay concentration (FAC) of 21 ng/100 μL, a biotinylated goat anti-mouse IgG diluted 1:500, to a FAC of […], and an avidin-linked alkaline phosphatase. […] Binding of the complex to the immobilized RAGE fusion protein was quantified by measuring conversion of PNPP to para-nitrophenol (PNP) which was measured spectrophotometrically at 405 nm.
On the technique in general: In an ELISA, binding on a coated surface is turned into a signal by an enzyme label.

Assay [1] concerns the target T2, Amyloid Beta (1-40) from Biosource (UniProt P05067 672-711).
T2 construct: domain: Amyloid Beta (1-40); Immobilized on Maxisorb plates at 5 micrograms per well; also called Abeta; A-beta
Put plainly: plate ELISA, immobilized ligand, dilutions of fusion protein, absorbance at 405 nm. The method, then:
as §1

Assay [2] has as its target T2, Amyloid Beta (1-40) from Biosource. In words: plate assay, immobilized ligand (A beta=Amyloid beta 1-40), fusion protein 0 to 360 nM, anti-IgG polyclonal antibody with alkaline phosphatase. The method, then:
The ligands are immobilized on a microtiter plate and incubated in the presence of increasing concentrations of RAGE fusion protein from 0 to 360 nM. The RAGE fusion protein-ligand interaction is detected using a polyclonal antibody conjugated with alkaline phosphatase that is specific for the IgG portion of the fusion chimera. […] HMG1B=Ampoterin, CML=Carboxymethyl Lysine, A beta=Amyloid beta 1-40.

T1 sequence (P02769 25-607 limits assumed): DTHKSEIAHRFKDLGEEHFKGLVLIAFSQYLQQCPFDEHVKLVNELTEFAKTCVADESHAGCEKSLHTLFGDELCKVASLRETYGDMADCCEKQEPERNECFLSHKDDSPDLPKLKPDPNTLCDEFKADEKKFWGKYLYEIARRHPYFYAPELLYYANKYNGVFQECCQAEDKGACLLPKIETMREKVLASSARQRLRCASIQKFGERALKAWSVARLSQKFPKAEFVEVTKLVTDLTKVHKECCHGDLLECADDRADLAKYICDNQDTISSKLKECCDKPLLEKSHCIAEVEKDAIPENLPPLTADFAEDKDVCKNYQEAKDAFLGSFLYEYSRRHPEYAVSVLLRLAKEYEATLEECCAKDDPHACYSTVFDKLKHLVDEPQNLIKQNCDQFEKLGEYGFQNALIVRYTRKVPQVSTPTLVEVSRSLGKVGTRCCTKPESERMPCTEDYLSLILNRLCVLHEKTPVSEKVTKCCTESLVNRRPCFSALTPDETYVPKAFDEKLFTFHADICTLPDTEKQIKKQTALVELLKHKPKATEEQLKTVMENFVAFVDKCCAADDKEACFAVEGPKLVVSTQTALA
T2 sequence (P05067 672-711 limits assumed): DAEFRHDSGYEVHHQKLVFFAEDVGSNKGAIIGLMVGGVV

B1: RAGE fusion protein TTP-3000 (Fc fusion)
chain: QNITARIGEPLVLKCKGAPKKPPQRLEWKLNTGRTEAWKVLSPQGGGPWDSVARVLPNGSLFLPAVGIQDEGIFRCQAMNRNGKETKSNYRVRVYQIPGKPEIVDSASELTAGPSVFLFPPKPKDTLMISRTPEVTCVVVDVSHEDPEVKFNWYVDGVEVHNAKTKPREEQYNSTYRVVSVLTVLHQDWLNGKEYKCKVSNKALPAPIEKTISKAKGQPREPQVYTLPPSRDELTKNQVSLTCLVKGFYPSDIAVEWESNGQPENNYKTTPPVLDSDGSFFLYSKLTVDKSRWQQGNVFSCSVMHEALHNHYTQKSLSLSPGK
notes: also called TT3; three domain RAGE fusion protein
Turning to B1, the binding result with BSA is given as “no binding”; in assay [1], “binds”.

B2: RAGE fusion protein TTP-4000 (Fc fusion)
chain: QNITARIGEPLVLKCKGAPKKPPQRLEWKLNTGRTEAWKVLSPQGGGPWDSVARVLPNGSLFLPAVGIQDEGIFRCQAMNRNGKETKSNYRVRVYQIPGKPEIVDSASELTAGVPNKVGTCVSEGSYPAGTLSWHLDGKPLVPNEKGVSVKEQTRRHPETGLFTLQSELMVTPARGGDPRPTFSCSFSPGLPRHRALRTAPIQPRVWEPVPLEEVQLVVEPEGGAVAPPSVFLFPPKPKDTLMISRTPEVTCVVVDVSHEDPEVKFNWYVDGVEVHNAKTKPREEQYNSTYRVVSVLTVLHQDWLNGKEYKCKVSNKALPAPIEKTISKAKGQPREPQVYTLPPSRDELTKNQVSLTCLVKGFYPSDIAVEWESNGQPENNYKTTPPVLDSDGSFFLYSKLTVDKSRWQQGNVFSCSVMHEALHNHYTQKSLSLSPGK
modifications: N-terminal residue glutamine (Q) or pyroglutamic acid (pE) or a mixture thereof; glycosylation sites at N2 and N288 (numbering of SEQ ID NO: 34 or 56); C-terminal residue of CH3 may be cleaved off
notes: No immunoglobulin hinge; Made in CHO cells, purified on Protein A; also called TT4; four domain RAGE fusion protein
For the molecule B2, the binding result in assay [2] is “binds”; in the assay with BSA, “no binding”.
